± gives the half width of the 95% confidence interval.
Tests used:
[1] = folding stability dG unfold (combined trypsin and chymotrypsin); higher = more stable
In short: (§1)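 K50 was inferred by Bayesian fitting of sequencing counts obtained after protease digestion of designed mini-proteins. Unfolding free energy was derived by comparison with a sequence-predicted unfolded-state K50 and a shared folded-state K50, for each protease or both combined. The mini-proteins were under 80 residues, had no cysteine, were carried in a PA-tagged cDNA display construct, and were kept only if AlphaFold2 dimer inter-PAE exceeded 15.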

[2] = folding stability dG unfold from chymotrypsin proteolysis; higher = more stable
In short: as §1

[3] = folding stability dG unfold from trypsin proteolysis; higher = more stable
In short: as §1

Sequence | folding stability dG unfold [1] [kcal/mol] | folding stability dG unfold [2] [kcal/mol] | folding stability dG unfold [3] [kcal/mol]
SAGGSAGGSAGGSTILILDPETKKLYLIRIEKREDGKEELKLKVYEFDLKTGEMKEYELSAGGSAGGSAGGS [r10_1041_TrROS_Hall] | 4.15 ± 0.19 | 4.68 ± 0.19 | 3.25 ± 0.2
SAGGSAGGSAGGSTITLRIEGLSKEEIEELARKLGAKVVSFDEKNKTVTIELPPGAKLLSAGGSAGGSAGGS [r4_3_TrROS_Hall] | 2.09 ± 0.084 | 2.19 ± 0.044 | 1.88 ± 0.054
SAGGSAGGSAGGSTPSFTPVLELEFEFENDVVVRVRLYRLPDEDTYLLEVEVAPDSLKDSAGGSAGGSAGGS [r4_163_TrMRF] | 3.62 ± 0.13 | 4.11 ± 0.1 | 2.88 ± 0.093
SAGGSAGGSAGGSVIEVKDPNGKKYIIIKTPDPNVYPVTVIPPDGTTTVTPVSDYSKLLSSAGGSAGGSAGG [r7_769_JUSTAS] | -0.527 ± 0.42 | -0.464 ± 0.56 | -0.893 ± 0.4
SAGGSAGGSAGGSVSELPPISTKTTTTVTTTSDGTKVVYTTTTYSDGTTTTTSGPVPAASAGGSAGGSAGGS [r10_682_JUSTAS] | 1.09 ± 0.13 | 1.14 ± 0.067 | 0.565 ± 0.049
SAGGSAGGSAGGSVSSVSTTSSPVVDPETGPASTVTTHSVPGGPATTVVMTPDSTTTTGSAGGSAGGSAGGS [r10_384_JUSTAS] | 1.59 ± 0.074 | 1.43 ± 0.038 | 1.92 ± 0.081
SAGGSAGGSAGGSVSVNIPLEELKERVPPSLSVSVSPTPVPEGGGVRVPVTLTSPAELGSAGGSAGGSAGGS [r4_119_JUSTAS] | 0.763 ± 0.041 | 0.471 ± 0.025 | 1 ± 0.031
SAGGSAGGSAGGSVYIDPDKGYLVMWNEEDGYIVKYPIDPPNKIPSVDIEPIPPGDPLFSAGGSAGGSAGGS [r4_409_TrROS] | 1.26 ± 0.11 | 1.13 ± 0.07 | 1.51 ± 0.074
SAGGSAGGSAGGSWLVRIPGHPIIFKGPEDQAEGIARELQKNGKPIEIEIIDPDEMKKFSAGGSAGGSAGGS [r4_131_TrROS] | 0.643 ± 0.23 | 1.12 ± 0.14 | 0.286 ± 0.12
SAGGSAGGSAGGSYTVSEIPEEGLVLKTLPNGVVTRYKVSPDGSLEEIATFEPGNGVLIKSAGGSAGGSAGG [r7_659_JUSTAS] | 0.766 ± 0.11 | 1.1 ± 0.096 | -0.0116 ± 0.3
SAGGSAGGSAGGTAEAVRKLAEEFSQQHGMPIKDVEVQRPPNKWKPVIRYPDNGKWIEISAGGSAGGSAGGS [r10_161_TrROS] | 0.388 ± 0.2 | 0.465 ± 0.13 | 0.298 ± 0.086
SAGGSAGGSAGGTAEEIKEAIEELGYKVEVEVTDDAVKIRLELPNGEKFEFEIPKEALESAGGSAGGSAGGS [r10_1029_TrMRF] | 1.99 ± 0.16 | 1.92 ± 0.11 | 2.3 ± 0.22
SAGGSAGGSAGGTAEIYFPNFPIRIDSVQLSPEKNHVQVSMENPDGPPVKGTMPPKDGILSAGGSAGGSAGG [r7_427_TrROS] | 0.903 ± 0.042 | -0.127 ± 0.027 | 1.58 ± 0.031
SAGGSAGGSAGGTITLPGGAEVTEVERLPGGVLKITGVLTLPGGPVTVEVTLPVTPELLESAGGSAGGSAGG [r7_38_JUSTAS] | 1.03 ± 0.099 | 1.03 ± 0.049 | 0.772 ± 0.034
SAGGSAGGSAGGTKTYTITNEDGSKITIEEVDGKYVITYPNGEKKEIEGMTLEELLKALSAGGSAGGSAGGS [r10_569_TrROS_Hall] | 4.35 ± 0.18 | 4.26 ± 0.21 | 4.22 ± 0.58
SAGGSAGGSAGGTPIAETEVSEDPATGKLITTSKSPTDPKVYVTTTDLATGVPTTTPLLSAGGSAGGSAGGS [r10_1034_JUSTAS] | 0.524 ± 0.064 | 0.213 ± 0.047 | 0.761 ± 0.031

Sequence | folding stability dG unfold [1] [kcal/mol] | folding stability dG unfold [2] [kcal/mol] | folding stability dG unfold [3] [kcal/mol]
SAGGSAGGSAGGVDPTPDGILRVRVVIKDPNGDVFSEKEVEMTPEELEALKKAGYVILESAGGSAGGSAGGS [r10_749_JUSTAS] | 1.82 ± 0.054 | 2.022 ± 0.018 | 1.43 ± 0.033
SAGGSAGGSAGGVIVLKSDNSVIIITKKVYTENGKPKKTIIEKKNLKKKPPKPLSIEIISAGGSAGGSAGGS [r10_1043_JUSTAS] | 0.681 ± 0.15 | 0.374 ± 0.27 | 0.77 ± 0.067
SAGGSAGGSAGGVKYLTLTLPDGTVIKVPVDEPVEIRGEDGRPVEIVEAKVTEGPPGLGSAGGSAGGSAGGS [r10_20_JUSTAS] | 1.94 ± 0.072 | 2.326 ± 0.021 | 0.963 ± 0.042
SAGGSAGGSAGGVPEDVIMSPVSTTLVEKEVLSTEVTPEGAPKTVEKVLIVEKTLEPLLSAGGSAGGSAGGS [r10_758_JUSTAS] | -0.429 ± 0.29 | -0.853 ± 0.24 | 0.0499 ± 0.05
SAGGSAGGSAGGVPPGAPELRLKVTVTVTTVELDEDTNELTTTTETVTVEVTVKVGETLSAGGSAGGSAGGS [r10_133_TrROS_Hall] | 1.2 ± 0.18 | 1.17 ± 0.09 | 0.616 ± 0.11
SAGGSAGGSAGGVPRLERFTLSPNGLPVRIFVDGDRALVVFEGPDGGLAVATFAVSDIPFSAGGSAGGSAGG [r7_653_TrMRF] | 1.31 ± 0.064 | 1.62 ± 0.047 | 0.857 ± 0.03
SAGGSAGGSAGGVSPEANIKEVSKDPKTGLTTSLAKDPNSDNEITITKDSSGNSSINISSAGGSAGGSAGGS [r10_450_JUSTAS] | 0.813 ± 0.073 | 1.08 ± 0.029 | 0.121 ± 0.038
SAGGSAGGSAGGWIFIIEIDPDNGEIKINWPNGNSIKIPPEDLDNMPIEIKPIPPPPNDKSAGGSAGGSAGG [r7_99_TrROS] | 1.87 ± 0.28 | 1.88 ± 0.097 | 1.83 ± 0.19
SAGGSAGGSAGGWVIRVTIKHPNGKKRTIMIPMPPDNIEEVAKNLMPQGYEIKEPEIFPGSAGGSAGGSAGG [r7_159_TrROS] | 0.813 ± 0.26 | 0.902 ± 0.36 | 0.295 ± 0.12
SAGGSAGGSAGGYLEAPIVIKIEFQIYDPDDGDPIATYEHTIMIPIEIELPPPPDPDNDSAGGSAGGSAGGS [r10_50_TrROS] | 2.18 ± 0.23 | 2.28 ± 0.17 | 1.97 ± 0.21
SAGGSAGGSAGGYVGPDQPVIIVEVKVKGARIGKDGKIYYDFEVERIEIREVEEGDNLGSAGGSAGGSAGGS [r10_826_TrMRF] | 1.82 ± 0.17 | 1.9 ± 0.088 | 2.05 ± 0.21
SAGGSAGGSAGIDPPDIKLRVESELGPGPVRRLLVYLEGPGELVLVDVPADGSVSVSIFPSAGGSAGGSAGG [r11_55_TrMRF] | 2.9 ± 0.23 | 2.9 ± 0.28 | 2.85 ± 0.18
SAGGSAGGSAGIGSKKPVIKKNIEIEPEIKVEGGKGGSKVKIEYKAKIEIKVYIISKNNPSAGGSAGGSAGG [r17_186_TrMRF] | 1.98 ± 0.4 | 2.15 ± 0.13 | 1.28 ± 0.22
SAGGSAGGSAGIKIEWEQMPGGYMQYKVTIPDPNGKPLKIDVHYKSPEDAEEKAKELLKSSAGGSAGGSAGG [r11_819_TrROS] | 0.333 ± 0.2 | 0.386 ± 0.26 | 0.215 ± 0.089
SAGGSAGGSAGITIWFPYDNIPEILEEAQKNGMEIKSVERVPDGWYLIKMPGKPIEIHIWSAGGSAGGSAGG [r17_379_TrROS] | 1.33 ± 0.07 | 1.55 ± 0.06 | 0.94 ± 0.032

From the supplement of paper PMC12764529
